From US20080199426A1 (BETH ISRAEL DEACONESS MEDICAL CENTER, published 2008) come the findings set out here.

To fix the notation:
B1: SH2 domain of Fyn (other, UniProt P06241 149-246, looked up)
chain: WYFGKLGRKDAERQLLSFGNPRGTFLIRESETTKGAYSLSIRDWDDMKGDHVKHYKIRKLDNGGYYITTRAQFETLQQLVQHYSERAAGLCCRLVVPC
notes: domain: SH2 domain
B2: SH2 domain of Lyn (other, UniProt P07948 129-226, looked up)
chain: WFFKDITRKDAERQLLAPGNSAGAFLIRESETLKGSFSLSVRDFDPVHGDVIKHYKIRSLDNGGYYISPRITFPCISDMIKHYQKQADGLCRRLEKAC
notes: domain: SH2 domain
B3: SH2 domain of SHC2 (other, UniProt P98077 487-578, looked up)
chain: WYHGRMSRRAAERMLRADGDFLVRDSVTNPGQYVLTGMHAGQPKHLLLVDPEGVVRTKDVLFESISHLIDHHLQNGQPIVAAESELHLRGVV
notes: domain: SH2 domain
B4: SH2 domain of Grb14 (other, UniProt Q14449 439-535, looked up)
chain: WFHHKISRDEAQRLIIQQGLVDGVFLVRDSQSNPKTFVLSMSHGQKIKHFQIIPVEDDGEMFHTLDDGHTRFTDLIQLVEFYQLNKGVLPCKLKHYC
notes: domain: SH2 domain
B5: SH2 domain of Hck (other, UniProt P08631 144-241, looked up)
chain: WFFKGISRKDAERQLLAPGNMLGSFMIRDSETTKGSYSLSVRDYDPRQGDTVKHYKIRTLDNGGFYISPRSTFSTLQELVDHYKKGNDGLCQKLSVPC
notes: domain: SH2 domain
B6: SH2 domain of Fes (other, UniProt P07332 460-549, looked up)
chain: WYHGAIPRAEVAELLVHSGDFLVRESQGKQEYVLSVLWDGLPRHFIIQSLDNLYRLEGEGFPSIPLLIDHLLSTQQPLTKKSGVVLHRAV
notes: domain: SH2 domain
B7: SH2 domain of Brdg1 (other, UniProt Q9ULZ2 177-280, looked up)
chain: ACFYTVSRKEATEMLQKNPSLGNMILRPGSDSRNYSITIRQEIDIPRIKHYKVMSVGQNYTIELEKPVTLPNLFSVIDYFVKETRGNLRPFICSTDENTGQEPS
notes: domain: SH2 domain
B8: SH2 domain of Eat2 (other, UniProt O14796 5-101, looked up)
chain: YYHGRLTKQDCETLLLKEGVDGNFLLRDSESIPGVLCLCVSFKNIVYTYRIFREKHGYYRIQTAEGSPKQVFPSLKELISKFEKPNQGMVVHLLKPI
notes: domain: SH2 domain
B9: SH2 domain of Lck (other, UniProt P06239 127-224, looked up)
chain: WFFKNLSRKDAERQLLAPGNTHGSFLIRESESTAGSFSLSVRDFDQNQGEVVKHYKIRNLDNGGFYISPRITFPGLHELVRHYTNASDGLCTRLSRPC
notes: domain: SH2 domain
B10: SH2 domain of TNS (other, UniProt Q9HBL0 1567-1676, looked up)
chain: WYKPEISREQAIALLKDQEPGAFIIRDSHSFRGAYGLAMKVSSPPPTIMQQNKKGDMTHELVRHFLIETGPRGVKLKGCPNEPNFGSLSALVYQHSIIPLALPCKLVIPN
notes: domain: SH2 domain
B11: SH2 domain of SHC1 (other, UniProt P29353 488-579, looked up)
chain: WFHGKLSRREAEALLQLNGDFLVRESTTTPGQYVLTGLQSGQPKHLLLVDPEGVVRTKDHRFESVSHLISYHMDNHLPIISAGSELCLQQPV
notes: domain: SH2 domain
B12: SH2 domain of RaLP (other, UniProt Q6S5L8 526-617, looked up)
chain: CYHGKLSRKAAESLLVKDGDFLVRESATSPGQYVLSGLQGGQAKHLLLVDPEGKVRTKDHVFDNVGHLIRYHMDNSLPIISSGSEVSLKQPV
notes: domain: SH2 domain
B13: SH2 domain of Stap2 (other, UniProt Q9UGK3 133-248, looked up)
chain: YMMSEVLAKEEARRALETPSCFLKVSRLEAQLLLERYPECGNLLLRPSGDGADGVSVTTRQMHNGTHVVRHYKVKREGPKYVIDVEQPFSCTSLDAVVNYFVSHTKKALVPFLLDE
notes: domain: SH2 domain
B14: SH2 domain of Abl1 (other, UniProt P00519 127-217, looked up)
chain: WYHGPVSRNAAEYLLSSGINGSFLVRESESSPGQRSISLRYEGRVYHYRINTASDGKLYVSSESRFNTLAELVHHHSTVADGLITTLHYPA
notes: domain: SH2 domain
B15: SH2 domain of SHC3 (other, UniProt Q92529 499-590, looked up)
chain: WYQGEMSRKEAEGLLEKDGDFLVRKSTTNPGSFVLTGMHNGQAKHLLLVDPEGTIRTKDRVFDSISHLINHHLESSLPIVSAGSELCLQQPV
notes: domain: SH2 domain
B16: SH2 domain of Nck2 (other, UniProt O43639 285-380, looked up)
chain: WYYGNVTRHQAECALNERGVEGDFLIRDSESSPSDFSVSLKASGKNKHFKVQLVDNVYCIGQRRFHTMDELVEHYKKAPIFTSEHGEKLYLVRALQ
notes: domain: SH2 domain
B17: SH2 domain of Yes (other, UniProt P07947 158-255, looked up)
chain: WYFGKMGRKDAERLLLNPGNQRGIFLVRESETTKGAYSLSIRDWDEIRGDNVKHYKIRKLDNGGYYITTRAQFDTLQKLVKHYTEHADGLCHKLTTVC
notes: domain: SH2 domain
B18: SH2 domain of Fgr (other, UniProt P09769 144-241, looked up)
chain: WYFGKIGRKDAERQLLSPGNPQGAFLIRESETTKGAYSLSIRDWDQTRGDHVKHYKIRKLDMGGYYITTRVQFNSVQELVQHYMEVNDGLCNLLIAPC
notes: domain: SH2 domain
B19: SH2 domain of Nck1 (other, UniProt P16333 282-376, looked up)
chain: WYYGKVTRHQAEMALNERGHEGDFLIRDSESSPNDFSVSLKAQGKNKHFKVQLKETVYCIGQRKFSTMEELVEHYKKAPIFTSEQGEKLYLVKHL
notes: domain: SH2 domain
B20: SH2 domain of Matk (other, UniProt P42679 122-211, looked up)
chain: WFHGKISGQEAVQQLQPPEDGLFLVRESARHPGDYVLCVSFGRDVIHYRVLHRDGHLTIDEAVFFCNLMDMVEHYSKDKGAICTKLVRPK
notes: domain: SH2 domain
B21: SH2 domain of Csk (other, UniProt P41240 82-171, looked up)
chain: WFHGKITREQAERLLYPPETGLFLVRESTNYPGDYTLCVSCDGKVEHYRIMYHASKLSIDEEVYFENLMQLVEHYTSDADGLCTRLIKPK
notes: domain: SH2 domain
B22: SH2 domain of Grap (other, UniProt Q13588 60-154, looked up)
chain: WYSGRISRQLAEEILMKRNHLGAFLIRESESSPGEFSVSVNYGDQVQHFKVLREASGKYFLWEEKFNSLNELVDFYRTTTIAKKRQIFLRDEEPL
notes: domain: SH2 domain
B23: SH2 domain of Btk (other, UniProt Q06187 281-377, looked up)
chain: WYSKHMTRSQAEQLLKQEGKEGGFIVRDSSKAGKYTVSVFAKSTGDPQGVIRHYVVCSTPQSQYYLAEKHLFSTIPELINYHQHNSAGLISRLKYPV
notes: domain: SH2 domain
B24: SH2 domain of Crkl (other, UniProt P46109 14-102, looked up)
chain: WYMGPVSRQEAQTRLQGQRHGMFLVRDSSTCPGDYVLSVSENSRVSHYIINSLPNRRFKIGDQEFDHLPALLEFYKIHYLDTTTLIEPA
notes: domain: SH2 domain; also called Crk1

In one assay the target is T1, thrombin-activated EphA2 (endogenous, from lysate of HUVECs stimulated with 1 U/ml thrombin for 5 mins) (human, UniProt P29317 24-976, tyrosine phosphorylated after thrombin stimulation (sites not given)).
T1 construct: Endogenous EphA2 in a HUVEC lysate, detected on the array with a biotinylated anti-human EphA2 antibody; No signal peptide limits are stated
T1 sequence (P29317 24-976 limits assumed): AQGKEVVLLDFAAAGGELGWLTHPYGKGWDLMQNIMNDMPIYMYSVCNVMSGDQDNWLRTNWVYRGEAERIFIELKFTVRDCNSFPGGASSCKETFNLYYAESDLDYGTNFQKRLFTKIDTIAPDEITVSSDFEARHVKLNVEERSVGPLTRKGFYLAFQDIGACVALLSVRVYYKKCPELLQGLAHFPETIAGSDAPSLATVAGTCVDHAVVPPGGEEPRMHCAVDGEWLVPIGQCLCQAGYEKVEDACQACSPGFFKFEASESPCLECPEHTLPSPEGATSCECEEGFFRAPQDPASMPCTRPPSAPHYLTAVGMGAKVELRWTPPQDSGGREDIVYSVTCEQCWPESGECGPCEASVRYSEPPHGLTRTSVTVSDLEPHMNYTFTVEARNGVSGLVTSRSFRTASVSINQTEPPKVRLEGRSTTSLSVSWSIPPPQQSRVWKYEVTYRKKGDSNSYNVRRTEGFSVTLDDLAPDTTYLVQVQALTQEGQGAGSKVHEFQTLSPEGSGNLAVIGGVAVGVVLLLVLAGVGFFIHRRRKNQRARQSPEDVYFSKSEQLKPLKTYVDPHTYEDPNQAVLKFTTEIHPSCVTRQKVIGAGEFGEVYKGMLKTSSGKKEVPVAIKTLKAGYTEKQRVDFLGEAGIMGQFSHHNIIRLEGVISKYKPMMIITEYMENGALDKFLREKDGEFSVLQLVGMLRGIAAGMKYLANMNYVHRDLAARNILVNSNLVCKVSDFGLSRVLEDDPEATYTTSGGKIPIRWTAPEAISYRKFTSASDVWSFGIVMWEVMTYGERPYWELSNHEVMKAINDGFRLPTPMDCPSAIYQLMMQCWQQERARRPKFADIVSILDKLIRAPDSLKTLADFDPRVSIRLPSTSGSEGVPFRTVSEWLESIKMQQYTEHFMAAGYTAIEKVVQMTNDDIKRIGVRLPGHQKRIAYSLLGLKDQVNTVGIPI
Nature of the assay: SH2 domain array with thrombin-stimulated HUVEC lysate, anti-EphA2 detection. As for the experimental part:
(§1) Methods: We used a phosphotyrosine profiling array to identify signaling pathways linked to EphA2 activation by thrombin. HUVECs were prepared and stimulated with 1 U/ml thrombin for 5 mins. TranSignal Phosphotyrosine Profiling Array (Panomics) was used according to the manufacturer's protocol, except that a biotinylated anti-human EphA2 (R & D) was used as the detection antibody.
(§2) Results: Confluent HUVECs were stimulated with thrombin for 5 mins to induce EphA2 phosphorylation. This stimulated lysate and an unstimulated lysate were used in the antibody array experiment. The concept of this array is similar to a far-western blot. On this array, the SH2 domains of 38 signaling molecules were spotted in duplicate. Upon incubation with a lysate, each of these SH2 domains will bind to its specific, tyrosine phosphorylated protein targets. When an anti-human EphA2 antibody was used for detection, any SH2 domains that are bound to EphA2 will appear as two dots in a specific location of the membrane. Therefore, pathways activated post EphA2 phosphorylation can be identified.
B1: the binding result is reported as “no binding”.
As for B2, the binding result is “no binding”.
For the molecule B3, the binding result is given as “no binding”.
Take B4: the binding result is listed as “no binding”.
In the case of B5, the binding result is reported as “no binding”.
With B6, the binding result was “no binding”.
Still for that read-out and setting: in the case of B7 it was “no binding”; in that of B8, “no binding”.
B9: the binding result is “no binding”.
Turning to B10, the binding result is “no binding”.
As for B11, the binding result was “no binding”.
Still for that read-out and setting: the result for B12 reads “no binding”; that for B13, “no binding”.
For the molecule B14, the binding result was “no binding”.
Turning to B15, the binding result is “no binding”.
In the case of B16, the binding result is given as “no binding”.
Take B17: the binding result is “no binding”.
In the case of B18, the binding result was “no binding”.
Same read-out and setting: the result for B19 reads “no binding”; that for B20, “no binding”.
On to B21, for which the binding result was “no binding”.
With B22, the binding result is “no binding”.
Take B23: the binding result is on record as “no binding”.

The next assay has as its target T1, thrombin-activated EphA2 (endogenous, …). Put plainly: SH2 domain array with thrombin-stimulated HUVEC lysate, anti-human EphA2 detection. As for the experimental part: as §1, §2
For the molecule B24, the binding result is on record as “binds”.
